Data taken from the NTF2 design screens of Basanta et al. (2020).

Experiment: protease stability score; higher = more stable; yeast display proteolysis, trypsin and chymotrypsin;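 note: relative to predicted unfolded state with 0 unfolded-like and 1 meaning tenfold more protease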

Sequence | protease stability score
SEDDHRAHEWFRIVFHWLLTGDEEHFDRYADPHTKVDINGVEFHGREEVRRWIYEIRLKDNRIRSVRAVGEKNESDGHRNGHIGDKHIVTDVEVRLHVVDGRIKSIHIIIH | 0.981
DRERLADELRRRLEKVMTTGDPTELDKLMDPNARILYGDQKFHGREHVKEFAKTLNDQYDHVTIRLVSYDIKNGEIHIVVDVVFRHNGQTRTKRINFVARVHGDKVKIESINIP | 1.48
SEVREDIERILTQWSKIMETGDEHTAKRLADPHVKIEVDGRTSVGMETWMEFLRDLGFKVIHVRVHIEHVRDIDGKARVDIRLVIESNVGDKTERYEHETHMIIEKIDGRWVLTRILLK | 1.01
DEDEEATRYALELMKKMHETGDEDSIKHLMDPHTKMDVNGVIFHGREAFHVWLNRFDVIRRFNIKHMKSVGDFLHIEGELDSEVNGKRIVTEVRIVSFKFNGRWHLSSTKIL | 1.53
DEDEKHARDLMKLWQLAMFTGDEDTLKRLVDPDMRLKYGEFELHGREDLLRFFKHWRLESRLETTDVRFQGDKLVAYGVRRHVSHIDGVEVEETRRVITYILKVDGQWYVKSVEIR | 1.67
DESMTEAKQILETLNKSLNTGDERLDKELFDPRAKLEFDGREIHGRELILTWLSEWRIEIKDFRIEDIEFQGNKVKMHTRIDMTVDFNGRRIKIDTTMHHDVIKVNGRWLIQRQIIP | 1.12
SEEEEIRLDLARLWLELVLTGDEQVYEKLADPNVRFDVNGRELHGRETWIDLLLQFKNVVKRIELKRLDVQGDFVVLDTRLRLVVNGRTETYETWIIFYVVNGRIKEVEIRTT | 1.31
DESEHAAKHVSELFRELVDTGDEKFHEEFADPNVRLDYGDKHYHGREIQLRIFREWRIHHIEDKDVEVQGDKIFVDGRLDGTVDGRRQHYKIILIWRKVNGRWLSTQIRFH | 1.59
SEEEELARQVLELWIHWYQTGDEESFRKNIDPHTRFDINGKHLHGREHVSKHLHDRAREMRIHDVFIKDVRLQGEKARMDGVIDGTIGDKRHEFKVEVTVQSINGRIDHLEFRFR | 1.18
SEEEELARHAFELWTRSMLTGDEHTMEKLFDPNTRLDINGRDHVGRELFLEFIHRLLREWRFRDVKLEDVKSVNGVLFLKVRLDVEFDGRRYSLTVELIVTKINGKWHMTEIKMH | 0.353
DHEKKEIEDLLRELFEALFTGDEHILHRLLDPRTKLVINGRNYHGRETVRRFVLHIRIFFHHIEIESSEIQGEWIHLHIRVDFREEQGDKERRIDTHAVMHMLKVNGRWVIHEIVLH | 1.54
DEATEAWRVVVELIKRANETGDEETRSENMDPETRMSIDGVDFIGREEVIKHVHKVKNMRIKHVEINDVRIQGDKIHVRGTLHGTVNGRETRIDVVLYVWKINGQWIIHSIEFI | 1.5
NEEEKIIKKDIEKEITAWETGDFDTLDHLLDPHARMDINGKDLHGREVLKTHFHEEWNRLGLEKVEIHIQDFRVIDGRVHIDGYMNVNGRHQKVRFIARKVNGRWIIHEVEFR | 1.32
DEQEEDDREAVKHALEVWETGDERVLWELFDPHVRIIVGDKHVHGREHFLRLTHELKRKVKGIRFDIRHVNLYDGRIEMDTDLEVDGRKHKTTIIAKKVNGRWILESIEIR | 1.45
SHEDHLVDLAFEVWRRDLETGDEDLLKKLVDPNVRIIQGDKMYHGMDDYVERLRRIWEELGVDYIQVHLEHSRQVNGVAELDVRLKLRIGDKRREYRLHLHIEKVNGKWQIKQINIQ | 0.277
DEERKESQKALELMLELFQTGDEEELSKFADPHVRLEFRVGDKRFEIHGREEVSRFFHELIWRIKNLRLTRHNDEVQGEKVIIHFELRQGDKRSEINIIAIKINGRWFIKHETVILL | 1.62
DDERRDTKLAIDLWVETWHTGDEQMFEDLADPHTRIIIGDKEHVGREEAVRYSSELIRRLGANHVDVTFRETRMYNGRIDVKGEINLHIGDKDHHREVHVYSRKIDGRWVLERIEFR | 1.3
SEIEERVYRVVETFWMALRTGDEETLDDLLDPNVKLDIDGKEFHGREKYKEFLELFKGVTVESVEFRDSKISGEKAIIHVHVTLRQGDKEEHKSTELVLYKINGRWIIEHVRLK | 2.21
SEDDETVIRMTHIILHAIFTGDEHITERLMDPHAKVTVGEFDTHGWEELDRFWKEMRMKRLKIRRIDFRWVNGRILSEIVVELDGIVNGRERKITMLIVIIIDKIDGRWVVTEFHFRIE | 1.43
DEDREAAEFVVEHLLRALSTGNEEEFLSLLDPTVKWEIDGREYHGRELVSKILHEIRIKTTEFRSTRHEYQGDYLKLDGILHTTVEIDGKRKHLDVNLHMLILKYDGRWLLKSMSVR | 1.53
SEEKKFLEKAHREILHLYKTGDEDRMSELADPDVRMRLVINGQERHHHGREEFERVFREMLDRFGVKHVEDEDSDLVNGQVHIKGTERFNGKEVRFNIIIVWVDGRVHMLSVEYR | 0.264
DEHDKHVHEMAERIMRSWHTGDEDTFHKMADPNVRVEIFVNGKNIIRHGREVWKHELERYDHVELRIKSMDAQGDFVHIDGELTINIGDKKHSTTLRIELEFINGRLKRISVHIH | 1.05
DDEDREAQELLNLYLHAHRTGDEHLLDELVDPHARIIVNGQEIHGRDFLEYLKKFWGITNVNIDIHIDDLKLYDGRIEVETRLILEINGQRYTYSSHEHWHKVNGKWISKRVDFE | 1.05
TEEEELRRRHAKELLDIWRTGDEHLMSHLADPHVRSIIDGVTVIGRDEWMKYLRILREHLGVKHIEHKDFNIQGDKVDVHGTMHVNGREIEVRSHFYVIDGRVRSNEIRFH | 0.256
SEEEELALRFWHELTHYRETGDEESLLKYVDPHVRLDVNGKDIHGMEEIARFLVEIRVKIETHVHDIKLINGKIHMDVRLHIEFDIDGKNVKRRHESRVIVRKVNGKWIIKTFELT | 0.53

Sequence | protease stability score
SEHEEEARKASQESLHDLKTGDEDSFERLLDPNTRVIVLFDGREIIHVGREEVTRFISEWLKRYKGMRIEMQDVRVIDGRIDIHLKTDVDGKDHRLDIHSEKINGQWFLKSIFVDVH | 1.95
DEHHEEIHRLVEIFLHLELTGDEDTWRELADPTAQIHIDGRDIHGMEDVLRVWEQFKKEMGIDHIRVKDYKVQGNFMHINTELEFNGRRVDSRIEIYIYDGRIKSVIIRYR | 2.25
SEEEKHAHEMVRIFLHILKTGDWRTLEKLLDPDVRMSLDINGREHHQVGREEVLKAFIRFLDEWRMDDLHLHDVTIQGDKAYLETEVHITFNGQRHHTHLEIEIYVINGKIKSIRLTIR | 2.36
EHEEEHTRHFMHFFIEMVETGDETALHKLLDPNAKYIQGDKHLVGRELMVEWMEELVRRFKNIRVHITEIERQGDKARVDEKWDINGKKIKTELIITKIDGQWRIHEIRVK | 1.23
SEEEEILRRSVEVTLEAFKTGNERILREYLDPHVRFLYNGQEYHGWKDFVRFLINEVRRFDHVEIRLDHWEMQGEKAHFHGRLILDVNGRLEIFRVHIHLFKVDGKWTLRELRIE | 1.83
DHEDEHSEEMEQLIFTWLQTGDWEAFMKFLDPRVILHIGDKTVIGREKFIEFIEQFKNIRMKIHDVQVQGNKIHIDVRTDIDGREYREHIHIHIVNGRIRHIEVRHH | 1.92
DEAEEHMRRYSELMMKSFLTGDEHTLRKLADPHTKLIFNGKELHGREEVARVFTWSREELGVDHQDVRHVSVRLVDGRVHVDIILEVNVGDKRFQVHIHLTILKYDGRWFVESVHIEIR | 0.285
SEEDHFMKHLVDHWAKIEQTGDEHALHELLDPDARVSIKIGDKEHIVHGREYLIELWRQLGFKVIKIHDHTVFNGVVKLHGHWHFDGREVHVEQDLIIINGRVKTVLMRVK | 1.72
SELEEHATKMLQMVLEWWFTGDEEIFKHLADPHVRVESLINGVEIRRVGMEKLHEWLKHVLIHLRFEDMKVKHLEIINGVARQDTRTHMDVNGKHVDLETHVVVVNVNGRLKSIKIEIR | 0.971
NEHKEEALHALQLWLRYYETGNEDSLREMLDPNVRVVINGKELHGMELFLDYIVDTRDRIKGLRIIIDDIEIHYVGDKVHVNIRGISYFNGREHEVEINIFSRKINGKWYLSSLELRVN | 2.55
DEDRKEMEEILRLYLEAFLTGDEKLLRHLVDPHVKLDINGVRLHGMDLLIKLLIHEARFFKGMKVEIRIHRVHVQGDKVENDTELILIFDGREFRRRTFLLWLKIDGRWLLESERIE | 1.45
DEQERRSRELLHLWLELFETGDEDNMQEFLDPNVRLIIIQGDNQVNHHGWENMVKIAKFYKNMQIKVHDVEFQGDKVIMDTRLLVDGRLRHTTVILDIVNGVIKHVEIRYS | 1.69
DEDQEIVERFTSLINHLILTGDEEEMKKLLDPNARWIYGDKHIHGRDEFIELLRQIKNVKTRFYIRHIDVINGKLVMHVEIELEFNGKRDHLRQIIISEKVDGRWRAKEFETR | 0.66
DEDEEEARKSFKHLLRSRMTGDEDSLKSLIDPNARFDIDGKELIGREAEELLLEKFKNIKLHDVKLNDWRVDEHHVVWRIELDGFYNGKRDSLDFTLIVKKVNGRWVIHQVKLI | 1.39
TEEEHFIKHATELWLRLLRTGDEHELSKMIDPHARVLIGDKNIHGRELASKFLSEFAHQIDHVEIRIKEVRTVDGKVDSDTRLDMHVDGQDIHHETRIISLKVDGKWLLQSFHFD | 0.456
DDRHEENKEITRRQFELFETGDEEILHHLADPHVRLRIDGQHNHGREELERSLRELRKELGANVLILRRIRVIGDKMEVEGEFDYNGRNFHATFRFNVIDGRLHSMSIEIR | 0.832
SEEEEYVTKYTRHWLHSHVTGDEDYLRRYADPHVRVDINGREVHGRDEAAHFIERVLRHIREEHLDDRDFTVINGKSILHGELKISINGQEWRVNFDIIIVVVNGRFKREEVRVK | 0.858
SELEEESHKFFREFYRVIETGDEDRLEELADPHVRNDFNGVLIHGREEMRKMREKVHKQLGVTRVEVTVRDMKIQGDKAISHGVFHIGEKDFIVTLISEKINGRWILHSIEVR | 1.2
TEDEELTSRANKEFQEFETTGDEEVLKRLFDPNTRLDVNGQDRHGRDEVVHLLVRMIHKLGIDHVSLKEVRIVNGKLDLNLTINVGEKRINTRLIHKKVNGRWVIETVEMG | 1.23
DEHHEIVRSMSELLTHLHLTGDEEKLSRMADPRVRLDVNGQWFHGREQWEKAFEDFEREMGAKHVKVDHVHVQGNKIILHFHVNVDGVHITVEFDIIIVDGRLKREHIRLK | 0.621
SEDHEIARLAVEIETHSQLTGDEESMNHLLDPTTRININGRELHGREEAIEWMKRFMEQFDHVKVEVEDISIQGEKLIIRGRFSVIYDGRKVQDHTEVIIVKFNGRWHVKSVHIR | 2.58
RDEDEVVDHIARLIVEAWRTGDEDWLKKMADPNVKQHIHIDGKTEINHGREEMIHQLERLHRKLGVDHHHLKSSTVIGDKIKIHMEERIGDFSIFVHVEFIVINGRMKEIRISIERE | 0.931
DEEEEYAHRFVEDFIDAWLTGDEDRLEELMDPNVKIVVGDKVLVGRHLVIRLMHEWIRKYKGIKFVFHVKHLEAINGRLEIESEVDLRINGRKIKHTSKMVVRKIDGKWEIREFHLN | 2.38
SEEEEHSLKIARQWVENVLTGDEHLLRKLADPDTRIIVDGRHYHGWRQEHKVLEEIRIHDMFEKDVEVQGDKIYMNGTVDGEINGKRTRSDVDLIILVVDGRIKQVEINVH | 1.12
DERDEETRRAIEWWVEVLKTGNFKDIKELADPNARVHQGDKHFHGMDHFLDFLERLGIDHVQINHIHYFDGKIEIDHHVRIGDKETRVIFISDKIDGRWRITEVQFH | 1.13
